The source of these data is publication PMC10835923.

Assay [1] addresses CXCR3 on primary human T lymphocytes stimulated with PHA and IL-2 (human (endogenous in primary T lymphocytes)) (UniProt P49682).
The target of assay [2] is CXC chemokine receptor 3 isoform A (CXCR3A) on transfected CHO cells (UniProt P49682).

On to “C-terminally truncated CXCL10(1-73) (from UniProt P02778 22-94) (ligand)”, for which the CXCR3 internalization: mean MFI of surface CXCR3 on PHA- and IL-2-stimulated primary T lymphocytes, as % of medium-treated cells, after 45 nM (90.1%) or 90 nM (83.3%) for 10 min at 37 °C in assay [1] is 90.1%. In addition, the desensitization: reduction of the calcium increase to 3 nM CXCL10(1-77) in CXCR3A-transfected CHO cells when 45 nM (69.9%) or 90 nM (72.2%) CXCL10(1-73) was added 100 s before in assay [2] worked out at 72.2%.
